Measurements reported in patent US20230279089A1 (GlaxoSmithKline, published 2023).

T1: Cyno TLL1 (cyno, UniProt A0A1D5QYV0 148-1013 (rhesus entry))
T1 sequence: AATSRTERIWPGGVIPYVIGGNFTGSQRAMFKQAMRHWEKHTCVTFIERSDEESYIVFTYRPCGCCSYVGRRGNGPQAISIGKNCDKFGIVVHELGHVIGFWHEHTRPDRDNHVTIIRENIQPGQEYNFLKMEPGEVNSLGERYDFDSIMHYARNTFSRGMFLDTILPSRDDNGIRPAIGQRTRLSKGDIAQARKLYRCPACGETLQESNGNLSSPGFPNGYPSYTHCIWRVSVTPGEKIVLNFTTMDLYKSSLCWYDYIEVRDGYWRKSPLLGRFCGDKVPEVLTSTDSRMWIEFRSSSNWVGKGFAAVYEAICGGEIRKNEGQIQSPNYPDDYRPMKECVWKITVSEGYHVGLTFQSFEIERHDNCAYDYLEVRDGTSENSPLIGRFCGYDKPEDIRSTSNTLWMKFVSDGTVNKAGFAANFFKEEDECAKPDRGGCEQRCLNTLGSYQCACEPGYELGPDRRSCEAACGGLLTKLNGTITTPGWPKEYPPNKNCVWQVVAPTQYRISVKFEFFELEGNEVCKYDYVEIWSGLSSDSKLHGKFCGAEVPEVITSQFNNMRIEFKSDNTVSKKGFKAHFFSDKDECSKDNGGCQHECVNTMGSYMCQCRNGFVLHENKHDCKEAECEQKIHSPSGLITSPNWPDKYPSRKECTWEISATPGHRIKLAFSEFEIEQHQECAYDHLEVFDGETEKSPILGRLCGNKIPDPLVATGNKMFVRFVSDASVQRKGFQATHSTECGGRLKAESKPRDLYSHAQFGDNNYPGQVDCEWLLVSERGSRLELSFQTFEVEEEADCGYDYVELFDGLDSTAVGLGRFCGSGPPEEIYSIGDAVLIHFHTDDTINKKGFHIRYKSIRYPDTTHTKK

T2: Human TLL1 (human, UniProt O43897 148-1013, limits assumed)
T2 sequence (looked up): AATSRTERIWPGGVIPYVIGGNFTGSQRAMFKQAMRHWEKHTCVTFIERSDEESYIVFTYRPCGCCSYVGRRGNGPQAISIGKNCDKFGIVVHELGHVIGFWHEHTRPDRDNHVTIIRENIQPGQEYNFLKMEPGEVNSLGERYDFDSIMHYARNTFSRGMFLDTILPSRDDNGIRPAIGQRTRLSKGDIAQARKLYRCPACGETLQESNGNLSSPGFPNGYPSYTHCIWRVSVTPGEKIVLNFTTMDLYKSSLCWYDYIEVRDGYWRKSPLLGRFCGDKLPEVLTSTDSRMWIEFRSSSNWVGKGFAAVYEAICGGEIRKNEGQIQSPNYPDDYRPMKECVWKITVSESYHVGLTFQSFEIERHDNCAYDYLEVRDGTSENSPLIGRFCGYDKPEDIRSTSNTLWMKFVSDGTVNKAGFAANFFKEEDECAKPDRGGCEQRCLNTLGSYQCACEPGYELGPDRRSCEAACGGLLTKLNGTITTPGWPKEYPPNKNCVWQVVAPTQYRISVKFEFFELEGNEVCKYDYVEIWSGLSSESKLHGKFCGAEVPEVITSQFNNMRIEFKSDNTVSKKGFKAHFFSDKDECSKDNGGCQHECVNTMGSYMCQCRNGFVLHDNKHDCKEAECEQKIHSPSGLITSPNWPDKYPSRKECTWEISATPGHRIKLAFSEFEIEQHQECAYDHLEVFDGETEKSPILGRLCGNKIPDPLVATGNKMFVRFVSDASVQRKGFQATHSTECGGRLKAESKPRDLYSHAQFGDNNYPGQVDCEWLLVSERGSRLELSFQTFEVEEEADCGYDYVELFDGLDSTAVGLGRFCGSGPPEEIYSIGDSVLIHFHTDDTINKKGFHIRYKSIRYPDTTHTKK

T3: Human TLL2 (human, UniProt Q9Y6L7 150-1015, limits assumed)
T3 sequence (looked up): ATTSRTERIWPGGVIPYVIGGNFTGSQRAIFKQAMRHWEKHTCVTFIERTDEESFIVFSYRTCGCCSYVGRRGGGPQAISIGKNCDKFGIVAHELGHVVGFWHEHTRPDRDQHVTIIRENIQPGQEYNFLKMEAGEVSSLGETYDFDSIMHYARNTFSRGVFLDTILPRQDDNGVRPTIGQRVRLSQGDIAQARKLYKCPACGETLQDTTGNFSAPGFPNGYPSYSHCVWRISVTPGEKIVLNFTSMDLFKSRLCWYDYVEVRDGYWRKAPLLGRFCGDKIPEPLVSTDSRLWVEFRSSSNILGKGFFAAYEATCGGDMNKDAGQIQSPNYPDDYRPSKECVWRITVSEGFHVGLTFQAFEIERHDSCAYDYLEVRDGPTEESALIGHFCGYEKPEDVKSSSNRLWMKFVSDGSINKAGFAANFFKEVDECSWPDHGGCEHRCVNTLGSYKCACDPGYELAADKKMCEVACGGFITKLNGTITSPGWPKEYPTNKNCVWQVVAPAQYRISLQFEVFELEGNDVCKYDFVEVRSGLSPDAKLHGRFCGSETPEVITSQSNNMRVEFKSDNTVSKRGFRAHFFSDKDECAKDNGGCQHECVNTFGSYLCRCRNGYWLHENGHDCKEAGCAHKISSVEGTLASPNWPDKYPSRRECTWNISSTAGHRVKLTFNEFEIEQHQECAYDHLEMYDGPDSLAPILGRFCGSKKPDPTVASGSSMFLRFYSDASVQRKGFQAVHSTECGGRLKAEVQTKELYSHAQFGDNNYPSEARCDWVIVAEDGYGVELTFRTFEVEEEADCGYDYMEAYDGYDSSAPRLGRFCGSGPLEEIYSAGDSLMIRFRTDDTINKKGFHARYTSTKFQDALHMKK


Key:
Assay in all cases: cell-based or functional assay
Cyno TLL1 = target: T1, Cyno TLL1
Human TLL1 = target: T2, Human TLL1
Human TLL2 = target: T3, Human TLL2

| Binder | IC50, FRET enzyme activity, 750 pM biotinylated cynoTLL-1 (Cyno TLL1) | IC50, FRET enzyme activity, 250 pM biotinylated huTLL-1 (Human TLL1) | IC50, FRET enzyme activity, 500 pM huTLL-2 (Human TLL2) |
| --- | --- | --- | --- |
| 13Y039-4B06-4324 (antibody, human IgG1, kappa, V domains shown, Fully human IgG1 LAGA, kappa; HEK expressed) VH: QVQLVQSGAEVKKPGASVKVSCKASGYTFRGYYMSWVRQAPGQGLEWMGWINPMSGETNYAQKFQGRVTMTRDTSISTAYMELSRLRSDDTAVYYCARDTGELDGMNWYFDLWGRGTLVTVSS VL: EIVLTQSPATLSLSPGERATLSCRASQSVSSYLAWYQQKPGQAPRLLIYDASNRATGIPARFSGSGSGTDFTLTISSLEPEDFAVYYCQQSDSWPPTFGGGTKVEIKR | 70 pM | 30 pM | 40 pM |
| 13Y039-4B06-4328 (antibody, human IgG1, kappa, V domains shown, Fully human IgG1 LAGA, kappa; HEK expressed) VH: QVQLVQSGAEVKKPGASVKVSCKASGYTFHGYYMNWVRQAPGQGLEWMGWINPLSGETNYAQKFQGRVTMTRDTSISTAYMELSRLRSDDTAVYYCARDTGELDGMNWYFDLWGRGTLVTVSS VL: EIVLTQSPATLSLSPGERATLSCRASQSVSSYLAWYQQKPGQAPRLLIYDASNRATGIPARFSGSGSGTDFTLTISSLEPEDFAVYYCQQSDSWPPTFGGGTKVEIKR | 70 pM | 40 pM | 20 pM |
| 13Y039-4B06-4351 (antibody, human IgG1, kappa, V domains shown, Fully human IgG1 LAGA, kappa; HEK expressed) VH: QVQLVQSGAEVKKPGASVKVSCKASGYTFSGYYMSWVRQAPGQGLEWMGWINPNSGETFYAQKFQGRVTMTRDTSISTAYMELSRLRSDDTAVYYCARDTGELDGMNWYFDLWGRGTLVTVSS VL: EIVLTQSPATLSLSPGERATLSCRASQSVSSYLAWYQQKPGQAPRLLIYDASNRATGIPARFSGSGSGTDFTLTISSLEPEDFAVYYCQQSDSWPPTFGGGTKVEIKR | 0.13 nM | 50 pM | 30 pM |
| 13Y039-4B06-4325 (antibody, human IgG1, kappa, V domains shown, Fully human IgG1 LAGA, kappa; HEK expressed) VH: QVQLVQSGAEVKKPGASVKVSCKASGYTFWGYYMSWVRQAPGQGLEWMGWINPQSGETNYAQKFQGRVTMTRDTSISTAYMELSRLRSDDTAVYYCARDTGELDGMNWYFDLWGRGTLVTVSS VL: EIVLTQSPATLSLSPGERATLSCRASQSVSSYLAWYQQKPGQAPRLLIYDASNRATGIPARFSGSGSGTDFTLTISSLEPEDFAVYYCQQSDSWPPTFGGGTKVEIKR | 50 pM | 20 pM | 50 pM |
| 13Y039-4B06-4327 (antibody, human IgG1, kappa, V domains shown, Fully human IgG1 LAGA, kappa; HEK expressed) VH: QVQLVQSGAEVKKPGASVKVSCKASGYTFPGYYMTWVRQAPGQGLEWMGNINPNSGWTNYAQKFQGRVTMTRDTSISTAYMELSRLRSDDTAVYYCARDTGELDGMNWYFDLWGRGTLVTVSS VL: EIVLTQSPATLSLSPGERATLSCRASQSVSSYLAWYQQKPGQAPRLLIYDASNRATGIPARFSGSGSGTDFTLTISSLEPEDFAVYYCQQSDSWPPTFGGGTKVEIKR | 20 pM | 10 pM | 30 pM |
| 13Y039-4B06-4348 (antibody, human IgG1, kappa, V domains shown, Fully human IgG1 LAGA, kappa; HEK expressed) VH: QVQLVQSGAEVKKPGASVKVSCKASGYTFGGYYMSWVRQAPGQGLEWMGWINPNSGETYYAQKFQGRVTMTRDTSISTAYMELSRLRSDDTAVYYCARDTGELDGMNWYFDLWGRGTLVTVSS VL: EIVLTQSPATLSLSPGERATLSCRASQSVSSYLAWYQQKPGQAPRLLIYDASNRATGIPARFSGSGSGTDFTLTISSLEPEDFAVYYCQQSDSWPPTFGGGTKVEIKR | 0.18 nM | 40 pM | 40 pM |
| 13Y039-127G03-2890 (antibody, human IgG1, kappa, V domains shown, Fully human IgG1 LAGA, kappa; HEK expressed) VH: QVQLVQSGAEVKKPGSSVKVSCKASGGTFSSYAISWVRQAPGQGLEWMGGIIPVFGSAYYAQKFQGRVTITADESTSTAYMELSSLRSEDTAVYYCAGEGRAYYGSESYDDSDYMDVWGKGTTVTVSS VL: DIQMTQSPSSLSASVGDRVTITCQASQDISNYLNWYQQKPGKAPKLLIYDASNLETGVPSRFSGSGSGTDFTFTISSLQPEDIATYYCQQADIFPLTFGGGTKVEIKR | 0.22 nM | 18.2 nM | 0.15 nM |
| 13Y039-152B02-2940 (antibody, human IgG1, kappa, V domains shown, Fully human IgG1 LAGA, kappa; HEK expressed) VH: QVQLVQSGAEVKKPGSSVKVSCKASGGTFSSDAISWVRQAPGQGLEWMGGIITNFGTATYAQKFQGRVTITADESTSTAYMELSSLRSEDTAVYYCARDVGVQLVYHGAFDIWGQGTMVTVSS VL: DIQMTQSPSSLSASVGDRVTITCQASQDISNYLNWYQQKPGKAPKLLIYDASNLATGVPSRFSGSGSGTDFTFTISSLQPEDIATYYCQQDDYLPITFGGGTKVEIKR | 60 pM | 50 pM | 0.28 nM |
| 13Y039-152B02-2948 (antibody, human IgG1, kappa, V domains shown, Fully human IgG1 LAGA, kappa; HEK expressed) VH: QVQLVQSGAEVKKPGSSVKVSCKASGGTFSDFAISWVRQAPGQGLEWMGGIIPIYGTASYAQKFLGRVTITADESTSTAYMELSSLRSEDTAVYYCARDVGVQLVYHGAFDIWGQGTMVTVSS VL: DIQMTQSPSSLSASVGDRVTITCQASQDISNYLNWYQQKPGKAPKLLIYDASNLATGVPSRFSGSGSGTDFTFTISSLQPEDIATYYCQQDDYLPITFGGGTKVEIKR | 70 pM | 80 pM | 0.86 nM |
| 13Y039-152B02-2935 (antibody, human IgG1, kappa, V domains shown, Fully human IgG1 LAGA, kappa; HEK expressed) VH: QVQLVQSGAEVKKPGSSVKVSCKASGGTFSESAISWVRQAPGQGLEWMGGIIPTFDTTNYAQKFQGRVTITADESTSTAYMELSSLRSEDTAVYYCARDVGVQLVYHGAFDIWGQGTMVTVSS VL: DIQMTQSPSSLSASVGDRVTITCQASQDISNYLNWYQQKPGKAPKLLIYDASNLATGVPSRFSGSGSGTDFTFTISSLQPEDIATYYCQQDDYLPITFGGGTKVEIKR | 0.11 nM | 90 pM | 0.2 nM |
